B1: GST-Inn1-tail (amino acids 131–409), wild type (domain or fragment, S. cerevisiae, UniProt P53901 131-409, looked up)
chain: LTFTPKVPRLNRDDLNKEMDRLDSSMAMRPIPPLPTESEYDYVHGSTMRQITPQCVSTSHEDKDEGQPYRNGNVFSMSSKSDTAVLANSNDPIILPPTFSASMGTTSTLETNDTAISNTSNTKFHFANLRKLKEKINIFKNPDSSTNNCQNESNKVDIEALQKAIGVTSLSYDEDDDDDDENDAFYSSSHRVSHNYNQPPLPPIPTRDDMSNYSSSRNTPLVRRDRPSRLDSSSPNSHPHPSGLNSPKLPPLPTTSNSNFNSRKNSMSPTRKRPPPRLS
B2: His6-tagged Cyk3 SH3 domain fragment (amino acids 1–70) (domain or fragment, S. cerevisiae, UniProt Q07533 1-70, looked up)
chain: MATNLTSLKPPFKVKARYGWSGQTKGDLGFLEGDIMEVTRIAGSWFYGKLLRNKKCSGYFPHNFVILLEE

In assay [1] the target is T1, His6-Hof1-C (amino acids 341–669) (S. cerevisiae, UniProt Q05080 341-669).
T1 sequence (looked up): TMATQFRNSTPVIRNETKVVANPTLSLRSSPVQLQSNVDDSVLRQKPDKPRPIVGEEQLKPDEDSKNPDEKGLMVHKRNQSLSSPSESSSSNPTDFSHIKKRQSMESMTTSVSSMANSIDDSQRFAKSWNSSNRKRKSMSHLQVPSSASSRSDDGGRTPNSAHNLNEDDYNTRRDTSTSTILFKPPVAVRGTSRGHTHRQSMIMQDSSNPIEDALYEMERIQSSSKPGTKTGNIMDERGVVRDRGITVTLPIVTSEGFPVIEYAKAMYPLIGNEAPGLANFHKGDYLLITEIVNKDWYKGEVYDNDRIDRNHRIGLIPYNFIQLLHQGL
Nature of the assay: pull-down.

Assay [2] has as its target B1. The assay is described as follows: pull-down.

For B1, in assay [1], the binding result was “binds”.

On to B2, for which the binding result in assay [2] was “binds”.
